According to patent US20230189818A1, “RNA-BASED CONTROL OF BOTRYTIS” (priority 2021, published 2023):

Columns and labels:
[1] = test system: Botrytis cinerea B05.10 isolate; assay: Greenhouse whole plant assay (tomato 'Lanai', disease severity); type: in vivo; conditions: final rating day (rating #3)
[2] = test system: Botrytis; assay: Open-air field trial on strawberry (Example 4.1, AUDPC of % disease severity); type: in vivo, Botrytis cinerea; conditions: FIG. 6
Experimental: RNAi compositions, each containing a dsRNA comprising a trigger sequence (GS349 or GS730) described herein were evaluated for ability to control botrytis on strawberry in open-air field trials. Non-formulated (dissolved in water) GS349 and GS730 were each tank mixed with water and the standard adjuvant Silwet L-77 0.1% v/v. GS349 was tested at concentrations of 25 grams of active ingredient per hectare (g ai/ha) and 50 g ai/ha and GS730 was tested at a concentration of 100 g ai/ha. Serenade ASO 85 g ai/ha, a standard biological fungicide, was used as a positive control. A second positive control group was treated with alternating applications of the chemical standards Teldor Plus 750 g ai/ha, Signum 600 g ai/ha, and Switch 500 g ai/ha. The trial also included an untreated group as a negative control.
Test compositions and positive controls were sprayed onto strawberry plants in 12 applications. Plants were observed beginning 14 days after the first application and disease progress was assessed by determining the percentage of surface area of fruit that was affected by the disease (% Disease Severity). Disease severity was plotted over the length of the trial observations and area under disease progress curve (AUDPC) was calculated in order to measure the cumulative effect of the various treatments across multiple assessments. Means were separated according to Fisher's LSD, alpha (p)≤0.05.

[3] = 8 g ai/ha, three runs, four-week-old 'Lanai' tomato plant
[4] = 25 g ai/ha, three runs, four-week-old 'Lanai' tomato plant

Molecule | % control ([1]; 8 g ai/ha, two runs, three-week-old 'Lanai' tomato plant) [%] | % control ([1]; 25 g ai/ha, two runs, three-week-old 'Lanai' tomato plant) [%] | Disease control compared with the biological standard (AUDPC) ([2]; 50 g/h ai, Serenade ASO 85 g ai/ha) | Disease control compared with the chemical standard (AUDPC) ([2]; 50 g/h ai, alternating Teldor Plus, Signum, Switch) | Disease control compared with the biological standard, Serenade (AUDPC) ([2]; GS349 25 g ai/ha, GS730 100 g ai/ha, Serenade ASO 85 g ai/ha) | Control of Botrytis vs. the untreated control (AUDPC) ([2]; non-formulated, Silwet L-77 0.1% v/v, 12 applications, GS349 25 and 50 g ai/ha, GS730 100 g ai/ha) | % control [1, 3] [%] | % control [1, 4] [%]
GS349: dsRNA trigger targeting B. cinerea CDC42 (XM_001545642.2); trigger SEQ ID NO 14, RNA 26, reverse complement 38 (nucleic acid, listed as Botrytis cinerea) sense: GUUGUCUUGUCUCGCUCAAGCUUGUCCUGUCUGGUCACUUUUCUUUCUGCCUGAUAAUCCAGACCUCGAAAAUAACCAAAAGAUUGGAAAUCGUUUGCUCAUCUUGCAUGCAUUAUUACUUUCCUGGAUCAAUCUCAUUCAACUCGUUCUCGUGCAUUUCAUUCAACCUCAACCCCUACUUUCAGUCAAUUCAAUUUAAUUCAAUCAUUCAAAUCUUUCAUUUCGCACACUUCACAUUCAACCAUCCUCUCUCAAUCAAAUAUCACCACCUCUCUUAUCGAACGUCAUUUUGCAUACAAUCAAUUCCUACAGACCGAGCGCAACUCGAUACAACCAUCGAAUAACUUCUCACACUUGCUUGUUGAAUUGAUUACUGAAGAAAGUGGAUUUCAAAGACCGAUUUUCCCCCUAGAUAUUCAAGAACGGCUUAUUCUUGUCUCGAGACAAAAC antisense: GUUUUGUCUCGAGACAAGAAUAAGCCGUUCUUGAAUAUCUAGGGGGAAAAUCGGUCUUUGAAAUCCACUUUCUUCAGUAAUCAAUUCAACAAGCAAGUGUGAGAAGUUAUUCGAUGGUUGUAUCGAGUUGCGCUCGGUCUGUAGGAAUUGAUUGUAUGCAAAAUGACGUUCGAUAAGAGAGGUGGUGAUAUUUGAUUGAGAGAGGAUGGUUGAAUGUGAAGUGUGCGAAAUGAAAGAUUUGAAUGAUUGAAUUAAAUUGAAUUGACUGAAAGUAGGGGUUGAGGUUGAAUGAAAUGCACGAGAACGAGUUGAAUGAGAUUGAUCCAGGAAAGUAAUAAUGCAUGCAAGAUGAGCAAACGAUUUCCAAUCUUUUGGUUAUUUUCGAGGUCUGGAUUAUCAGGCAGAAAGAAAAGUGACCAGACAGGACAAGCUUGAGCGAGACAAGACAAC | 46 | 59 | significantly improved control | not significantly different | not significantly different | significant control |  | 
GS2280: dsRNA trigger targeting B. cinerea Bcmcm4 (XM_024696090.1); trigger SEQ ID NO 21, RNA 33, reverse complement 45 (nucleic acid, listed as Botrytis cinerea) sense: AAUGUCCUCGUCCGGUUUGUAAAUCUCCAAACUCCAUGCAGAUUGUACACAACAGGUCUGGAUUCAUGGAUAAGCAAGUUAUCAAGCUUCAAGAAACUCCAGAUUCCGUUCCUGCUGGUCAAACACCACAUUCCGUCUCGAUGUGUGCAUAUGAUGAGUUGGUGGAUCUGUGCAAAGCUGGUGACAGAGUUGAGAUUACUGGUAUCUUCAAAGCUAGUCCAGUUCGUGUCAAUCCUCGCCAAAGAACUCUCAAAAGCAUUUAUAAAACGUACAUCGACGUUUUACACAUUCAAAAGGUUGACAAGAAAAGAAUGGGAAUUGAUGCUUCGACCGUUGAGCAAGAAAUAUCCGAUCAGUUGACAGGCAACAUUGAAGAAACUAGAAAGGUUUCUGAAGAGGAGGAAGAAAAAAUCAGAGAAACCGCUGCAAGACCCGAUAUCUACGAACUUCUAUCUCGAUCCCUCGCACCUAGUAUUUUUGAGAUGGACGAUGUUAAGAAGGGUAUCUUGCUUCAAUUAUUUGGUGGAACUAACAAGUCUUUCGAAAAAGGAGGAAGUCCAAAAUACAGAGGAGAUAUCAAUAUUCUAUUGU antisense: ACAAUAGAAUAUUGAUAUCUCCUCUGUAUUUUGGACUUCCUCCUUUUUCGAAAGACUUGUUAGUUCCACCAAAUAAUUGAAGCAAGAUACCCUUCUUAACAUCGUCCAUCUCAAAAAUACUAGGUGCGAGGGAUCGAGAUAGAAGUUCGUAGAUAUCGGGUCUUGCAGCGGUUUCUCUGAUUUUUUCUUCCUCCUCUUCAGAAACCUUUCUAGUUUCUUCAAUGUUGCCUGUCAACUGAUCGGAUAUUUCUUGCUCAACGGUCGAAGCAUCAAUUCCCAUUCUUUUCUUGUCAACCUUUUGAAUGUGUAAAACGUCGAUGUACGUUUUAUAAAUGCUUUUGAGAGUUCUUUGGCGAGGAUUGACACGAACUGGACUAGCUUUGAAGAUACCAGUAAUCUCAACUCUGUCACCAGCUUUGCACAGAUCCACCAACUCAUCAUAUGCACACAUCGAGACGGAAUGUGGUGUUUGACCAGCAGGAACGGAAUCUGGAGUUUCUUGAAGCUUGAUAACUUGCUUAUCCAUGAAUCCAGACCUGUUGUGUACAAUCUGCAUGGAGUUUGGAGAUUUACAAACCGGACGAGGACAUU |  |  |  |  |  |  | 0 | 36
GS2303: dsRNA trigger targeting B. cinerea Bcded1 (XM_001550339.2); trigger SEQ ID NO 24, RNA 36, reverse complement 48 (nucleic acid, listed as Botrytis cinerea) sense: GGGCUAUAUAAGCUUUCAUCUAGGUUUUCCAAGAAACGCAUUACGAUAGACAUGUUCUCCAAAAAUCUUACUGGUCCUGCUUUCAGCAUUUCCAUGGAUCAUGAAGUCCUCCACUAUGGAAGAUUUGCAAAAUAUUUUCGACAUUGCAUUUUGCUGCAUUUCGCAUUUCUAGAUAGAAAAAAAGUGGGAUUCAUAUUCUCGAUAUUUUCUUCGUUGUCUUUUAUUCACAAGACACAUGGCAAGGGAGGAUACCAUUUGAGAGCUUGAAUUGAAGGCUUUCCUCUUACUUUUUUUAUUUUUCACAUCAUCUACGAGUGGGCGUCUUUUACGAUCAAAUCGAUAUACGACAGUGGCACAAAAUAGAAUAGGCAUUUCUCUUCUUAAAAAAGAUUUAAGGGAAGAGUUGGUGCUUGUUCUCUAUAACGCUGAUGGCAUUCGGAAGUGCUCCUGUCCAUUCAGGCUGAGACUGAGACCCAAAAUGUUGGCAGGUACGGCAGAAAGAAGUCUGCUUCAUAUGAUUGAUGGAGGAAGAAAGAAAUAUGGAAUGCGAUGGAUGAGUAAUUACUUUAAAUGAAUAUGAAAA antisense: UUUUCAUAUUCAUUUAAAGUAAUUACUCAUCCAUCGCAUUCCAUAUUUCUUUCUUCCUCCAUCAAUCAUAUGAAGCAGACUUCUUUCUGCCGUACCUGCCAACAUUUUGGGUCUCAGUCUCAGCCUGAAUGGACAGGAGCACUUCCGAAUGCCAUCAGCGUUAUAGAGAACAAGCACCAACUCUUCCCUUAAAUCUUUUUUAAGAAGAGAAAUGCCUAUUCUAUUUUGUGCCACUGUCGUAUAUCGAUUUGAUCGUAAAAGACGCCCACUCGUAGAUGAUGUGAAAAAUAAAAAAAGUAAGAGGAAAGCCUUCAAUUCAAGCUCUCAAAUGGUAUCCUCCCUUGCCAUGUGUCUUGUGAAUAAAAGACAACGAAGAAAAUAUCGAGAAUAUGAAUCCCACUUUUUUUCUAUCUAGAAAUGCGAAAUGCAGCAAAAUGCAAUGUCGAAAAUAUUUUGCAAAUCUUCCAUAGUGGAGGACUUCAUGAUCCAUGGAAAUGCUGAAAGCAGGACCAGUAAGAUUUUUGGAGAACAUGUCUAUCGUAAUGCGUUUCUUGGAAAACCUAGAUGAAAGCUUAUAUAGCCC |  |  |  |  |  |  | 0 | 34
GS2297: dsRNA trigger targeting B. cinerea Bcrpb5 (XM_024693733.1); trigger SEQ ID NO 23, RNA 35, reverse complement 47 (nucleic acid, listed as Botrytis cinerea) sense: UGCACCAUCAGGUCCCGCUCAAAAGAUUAUUCCCGCUGUCGCAUCCGAGACAAGAAUCGAGACCUUCGUCGAGCAAGAUUUACUUGUCAAUAUUACACAUCAUGAAUUGGUUCCCAAGCAUGUUUUGUUAAGUAGAGAAGAGAGGGCCAAGUUGUUGUCAAGAUAUAGAUUGAAGGAUACUCAACUCCCACGUAUUCAGGCUGCGGAUCCAGUUGCAAAAUAUUUGGGAUUGAGAAGAGGGCAGGUCGUUAAGAUUAUCAGAAAGUCGGAAACUGCUGGUCGUUAUGCCAGUUACAGAUUGUGCGUAUAAUGGAGCUGGAGGGUAGAUGAUUUGGUGUUAAUAACUAGGGAGUUUCUUGGGAAAAAUUUGCAUAUUUGGGGAAGGCGUAAUAGGCUGGAAGAAAGACUGAGGAUGAGAUUGUCUAUUUUGGCUUUCCAGGAAGCAAUACUUUGAGACAUGAAAUUUGAUAUUAAAUUUCUUGUUCUGUAUAUUUCUGAUAGUUUCAGAGCUUUUCAAUAAGAUCUAUUCUACAGUUUUAAGAAUCCAGACUCACCCUUUGAGAAGCUCAUACAAAGUUCCUUCCUA antisense: UAGGAAGGAACUUUGUAUGAGCUUCUCAAAGGGUGAGUCUGGAUUCUUAAAACUGUAGAAUAGAUCUUAUUGAAAAGCUCUGAAACUAUCAGAAAUAUACAGAACAAGAAAUUUAAUAUCAAAUUUCAUGUCUCAAAGUAUUGCUUCCUGGAAAGCCAAAAUAGACAAUCUCAUCCUCAGUCUUUCUUCCAGCCUAUUACGCCUUCCCCAAAUAUGCAAAUUUUUCCCAAGAAACUCCCUAGUUAUUAACACCAAAUCAUCUACCCUCCAGCUCCAUUAUACGCACAAUCUGUAACUGGCAUAACGACCAGCAGUUUCCGACUUUCUGAUAAUCUUAACGACCUGCCCUCUUCUCAAUCCCAAAUAUUUUGCAACUGGAUCCGCAGCCUGAAUACGUGGGAGUUGAGUAUCCUUCAAUCUAUAUCUUGACAACAACUUGGCCCUCUCUUCUCUACUUAACAAAACAUGCUUGGGAACCAAUUCAUGAUGUGUAAUAUUGACAAGUAAAUCUUGCUCGACGAAGGUCUCGAUUCUUGUCUCGGAUGCGACAGCGGGAAUAAUCUUUUGAGCGGGACCUGAUGGUGCA |  |  |  |  |  |  | 6 | 29
